From publication doi:10.1101/085266

Key:
[1] = target: Bacillaceae bacterium MTCC 10057 encapsulin capsid protein (Bacillaceae bacterium MTCC 10057); assay: co-purification with encapsulin capsids
[2] = target: Kuenenia stuttgartiensis encapsulin without the N-terminal cytochrome domain (Kuenenia stuttgartiensis) (UniProt Q1Q6L7); assay: co-purification with encapsulin capsids
[3] = target: Bacillaceae bacterium MTCC 10057 Geobac cargo protein with C-terminal His6 tag (Bacillaceae bacterium MTCC 10057); assay: SEC
[4] = target: Streptomyces sp. AA4 hemerythrin cargo with C-terminal His6 tag (Streptomyces sp. AA4); assay: SEC
[5] = target: Streptomyces sp. AA4 encapsulin capsid protein (Streptomyces sp. AA4); assay: co-purification with encapsulin capsids

Bacillaceae bacterium MTCC 10057 Ferredoxin cargo (Fer), with N-terminal targeting peptide (natural protein)
molecules of cargo per 180 subunit capsid (molecules per 180 subunit capsid) [1]: 10

NIR domain (N-terminal cupredoxin domain) of the Kuenenia stuttgartiensis NIR-HAO fusion protein (domain or fragment)
copies of cargo per 180mer capsid (copies per 180mer capsid) [2]: 15

Bacillaceae bacterium MTCC 10057 Geobac cargo protein with C-terminal His6 tag (natural protein)
stoichiometry N [3]: 2

Streptomyces sp. AA4 hemerythrin cargo with C-terminal His6 tag (natural protein)
stoichiometry N [4]: 2

Bacillaceae bacterium MTCC 10057 Geobac cargo protein, with C-terminal targeting peptide (natural protein)
molecules of cargo per 180 subunit capsid (molecules per 180 subunit capsid) [1]: 150

Streptomyces sp. AA4 hemerythrin cargo (Heme), with C-terminal targeting peptide (natural protein)
molecules of cargo per 60 subunit capsid (molecules per 60 subunit capsid) [5]: 20
